According to EP4717706A1:

Tests used:
[1] = biological target: VLP2 (virus-like particles, capsid protein particles of AAV serotype 2) (AAV serotype 2 (AAV2)) (UniProt P03135); assay: ELISA on immobilised VLP2 (purified protein, 5 µg/mL); A450 after 1:1 1 M NaOH with 1 mM CaCl2, 30°C, 20 min divided by A450 at 0 time
[2] = biological target: VLP2 (virus-like particles, capsid protein particles of AAV serotype 2) (AAV serotype 2 (AAV2)) (UniProt P03135); assay: ELISA on immobilised VLP2 (purified protein, 5 µg/mL); A450 after 1:1 1 M NaOH with 1 mM CaCl2, 30°C, 45 min divided by A450 at 0 time
[3] = biological target: VLP2 (virus-like particles, capsid protein particles of AAV serotype 2) (AAV serotype 2 (AAV2)) (UniProt P03135); assay: ELISA on immobilised VLP2 (purified protein); A450 after 1:1 0.5 M NaOH, 30°C, 90 min divided by A450 at 0 time
[4] = biological target: VLP2 (virus-like particles, capsid protein particles of AAV serotype 2) (AAV serotype 2 (AAV2)) (UniProt P03135); assay: ELISA on immobilised VLP2 (purified protein, 5 µg/mL); A450 after 1:1 1 M NaOH with 1 mM CaCl2, 30°C, 30 min divided by A450 at 0 time
[5] = biological target: VLP2 (virus-like particles, capsid protein particles of AAV serotype 2) (AAV serotype 2 (AAV2)) (UniProt P03135); assay: as above; remark: listed apart in the source
[6] = biological target: VLP2 (virus-like particles, capsid protein particles of AAV serotype 2) (AAV serotype 2 (AAV2)) (UniProt P03135); assay: ELISA on immobilised VLP2 (purified protein, 5 µg/mL); A450 after 1:1 1 M NaOH with 1 mM CaCl2, 30°C, 60 min divided by A450 at 0 time
[7] = biological target: VLP2 (virus-like particles, capsid protein particles of AAV serotype 2) (AAV serotype 2 (AAV2)) (UniProt P03135); assay: as above; remark: listed apart in the source
[8] = biological target: VLP2 (virus-like particles, capsid protein particles of AAV serotype 2) (AAV serotype 2 (AAV2)) (UniProt P03135); assay: ELISA on immobilised VLP2 (culture supernatant); A450 after 1:1 1 M NaOH, 15 min, 30°C divided by A450 untreated
[9] = biological target: VLP2 (virus-like particles, capsid protein particles of AAV serotype 2) (AAV serotype 2 (AAV2)) (UniProt P03135); assay: ELISA on immobilised VLP2 (purified protein); A450 after 1:1 0.5 M NaOH, 30°C, 30 min divided by A450 at 0 time
[10] = biological target: VLP2 (virus-like particles, capsid protein particles of AAV serotype 2) (AAV serotype 2 (AAV2)) (UniProt P03135); assay: ELISA on immobilised VLP2 (purified protein, 5 µg/mL); A450 after 1:1 1 M NaOH with 1 mM CaCl2, 30°C, 30 min divided by A450 at 0 time; remark: listed apart in the source
[11] = biological target: VLP2 (virus-like particles, capsid protein particles of AAV serotype 2) (AAV serotype 2 (AAV2)) (UniProt P03135); assay: as above; remark: listed apart in the source
[12] = biological target: VLP2 (virus-like particles, capsid protein particles of AAV serotype 2) (AAV serotype 2 (AAV2)) (UniProt P03135); assay: ELISA on immobilised VLP2 (purified protein, 5 µg/mL); start of alkali treatment, the reference of the ratio
[13] = biological target: VLP2 (virus-like particles, capsid protein particles of AAV serotype 2) (AAV serotype 2 (AAV2)) (UniProt P03135); assay: ELISA on immobilised VLP2 (purified protein); start of alkali treatment, the reference of the ratio
[14] = biological target: VLP2 (virus-like particles, capsid protein particles of AAV serotype 2) (AAV serotype 2 (AAV2)) (UniProt P03135); assay: ELISA on immobilised VLP2 (purified protein, 5 µg/mL); A450 after 1:1 1 M NaOH with 1 mM CaCl2, 30°C, 60 min divided by A450 at 0 time; remark: listed apart in the source
[15] = biological target: VLP2 (virus-like particles, capsid protein particles of AAV serotype 2) (AAV serotype 2 (AAV2)) (UniProt P03135); assay: ELISA on immobilised VLP2 (purified protein); A450 after 1:1 0.5 M NaOH, 30°C, 60 min divided by A450 at 0 time
[16] = biological target: VLP2 (virus-like particles, capsid protein particles of AAV serotype 2) (AAV serotype 2 (AAV2)) (UniProt P03135); assay: ELISA on immobilised VLP2 (purified protein); A450 after 1:1 0.5 M NaOH, 30°C, 30 min divided by A450 at 0 time; remark: listed apart in the source
[17] = biological target: VLP2 (virus-like particles, capsid protein particles of AAV serotype 2) (AAV serotype 2 (AAV2)) (UniProt P03135); assay: ELISA on immobilised VLP2 (culture supernatant); A450 after 1:1 0.1 M glycine-NaOH pH 10.0, 15 min, 51.3°C divided by A450 untreated
[18] = biological target: VLP2 (virus-like particles, capsid protein particles of AAV serotype 2) (AAV serotype 2 (AAV2)) (UniProt P03135); assay: ELISA on immobilised VLP2 (purified protein); A450 after 1:1 0.1 M glycine-NaOH pH 10.0, 15 min, 66.1°C divided by A450 untreated
[19] = biological target: VLP2 (virus-like particles, capsid protein particles of AAV serotype 2) (AAV serotype 2 (AAV2)) (UniProt P03135); assay: ELISA on immobilised VLP2 (purified protein); A450 after 1:1 0.1 M glycine-NaOH pH 10.0, 15 min, 55.7°C divided by A450 untreated
[20] = biological target: VLP2 (virus-like particles, capsid protein particles of AAV serotype 2) (AAV serotype 2 (AAV2)) (UniProt P03135); assay: ELISA on immobilised VLP2 (purified protein); A450 after 1:1 0.1 M glycine-NaOH pH 10.0, 15 min, 70°C divided by A450 untreated
[21] = biological target: VLP2 (virus-like particles, capsid protein particles of AAV serotype 2) (AAV serotype 2 (AAV2)) (UniProt P03135); assay: ELISA on immobilised VLP2 (purified protein); A450 after 1:1 0.1 M glycine-NaOH pH 10.0, 15 min, 60.1°C divided by A450 untreated

Sequence of UniProt P03135 (P03135 whole entry): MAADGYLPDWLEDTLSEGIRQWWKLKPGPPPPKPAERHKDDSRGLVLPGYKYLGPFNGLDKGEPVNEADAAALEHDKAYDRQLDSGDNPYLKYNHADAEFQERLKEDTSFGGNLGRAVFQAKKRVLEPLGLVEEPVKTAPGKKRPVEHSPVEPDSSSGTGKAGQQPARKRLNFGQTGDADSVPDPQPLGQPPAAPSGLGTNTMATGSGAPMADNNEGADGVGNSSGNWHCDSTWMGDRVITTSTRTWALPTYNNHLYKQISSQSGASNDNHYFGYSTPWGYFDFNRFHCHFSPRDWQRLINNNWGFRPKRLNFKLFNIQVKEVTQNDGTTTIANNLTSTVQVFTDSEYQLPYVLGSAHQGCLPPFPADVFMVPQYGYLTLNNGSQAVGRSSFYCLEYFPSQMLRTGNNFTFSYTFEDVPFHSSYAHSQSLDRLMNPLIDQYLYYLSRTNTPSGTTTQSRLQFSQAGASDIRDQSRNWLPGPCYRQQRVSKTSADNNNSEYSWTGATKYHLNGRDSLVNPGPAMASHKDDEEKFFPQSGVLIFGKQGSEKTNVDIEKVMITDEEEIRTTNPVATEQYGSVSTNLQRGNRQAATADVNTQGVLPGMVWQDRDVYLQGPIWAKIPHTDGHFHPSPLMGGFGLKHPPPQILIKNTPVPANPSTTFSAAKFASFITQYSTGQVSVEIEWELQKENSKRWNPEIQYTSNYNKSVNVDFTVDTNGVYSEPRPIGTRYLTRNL

B1: AVR25c (AVR25a with K467N) (receptor)
chain: MGSAGESDQITLPKHEAQLKVYVLLVPPKGEASTYDWQLITHPRDYSGEMEGEHSQILKLSNLTPGLYEYRAVVEGQNAHSEGYVNVTVEPGPRKNRPPIAIVSPQFQEISLPTTSAVIDGSQSTDDDKIVQYHWEELKGPLREEKISEDTPILKLSNLVPGNYTFRLTVVDTDGATDSTTADLTVNKAVDHHHHHH
Work on B1 yielded a Remaining activity [%] [1] of 12.1%, a Remaining activity [%] [2] of 0% and a Remaining activity [%] [3] of 66.9%. It also gave a Remaining activity [%] [4] of 2.87%, a Remaining activity [%] [5] of 16.3% and a Remaining activity [%] [6] of 2.19%. For the same binder, the Remaining activity [%] [7] was 0.197%, the Remaining activity [%] [8] was 33.5% and the Remaining activity [%] [9] was 91.2%. For the same binder, the Remaining activity [%] [10] was 5.28%, the Remaining activity [%] [11] was 22% and the Remaining activity [%] [12] was 100%. For the same binder, the Remaining activity [%] [13] was 100% and the Remaining activity [%] [14] was 1.96%.

B2: AVR25a (AVR21 with N329K, E401G, T426A, A461P) (receptor)
chain: MGSAGESDQITLPKHEAQLKVYVLLVPPKGEASTYDWQLITHPRDYSGEMEGEHSQILKLSNLTPGLYEYRAVVEGQNAHSEGYVNVTVEPGPRKNRPPIAIVSPQFQEISLPTTSAVIDGSQSTDDDKIVQYHWEELKGPLREEKISEDTPILKLSQLVPGNYTFRLTVVDTDGATDSTTADLTVNKAVDHHHHHH
Work on B2 yielded a Remaining activity [%] [15] of 47.9%, a Remaining activity [%] [16] of 100% and a Remaining activity [%] [3] of 0%. The Remaining activity [%] [9] was 62.3% and the Remaining activity [%] [13] was 100%.

B3: AAV-binding protein AVR8g (receptor)
chain: MGSAGESDQITLPKNEVQLNAYVLQEPPKGETCTYDWQLITHPRDYSGEMEGEHSQILKLSNLTPGLYEFKVIVEGQNAHSEGYVNVTVEPEPRKNRPPIAIVSPQFQEISLPTTSTVIDGSQSTDDDKIVQYHWEELKGPLREEKISEDTAILKLSKLVPGNYTFRLTVVDSDGATDSTTANLTVNKAVDHHHHHH
In the case of B3, the Remaining activity [%] [17] is reported as 8.8%, the Remaining activity [%] [18] is reported as 0% and the Remaining activity [%] [19] is reported as 0.837%. It also gave a Remaining activity [%] [20] of 3.77% and a Remaining activity [%] [21] of 4.18%.
